Laboratory results as given in patent publication US20200325187A1 (Genentech, published 2020).
Changes are numbered by the printed parent chain. In names and notes the source's numbering stands. Read-outs that look alike come from different tables or passages of the source. No end group written: not given here.

Columns and labels:
[1] = molecular target: T1, hVEGF-A (human, UniProt P15692-4 27-191, limits assumed); experiment: KDR-VEGF competition ELISA
T1 construct: also called human VEGF-A; WT

[2] = molecular target: T1, hVEGF-A; experiment: SPR
Method: Depending on the format of the assay either a streptavidin sensor (SA) or a dextran-coated (CM5) sensor was utilized as described below.
Reaction was then quenched by addition of 10 molar excess of Glycine pH 8.0 and the sample was buffer exchanged into PBS using an Amicon 0.5 mL 3000 MWCO ultra-centrifugal filters (EMD Millipore). The biotinylation state of the protein was verified by LC-MS analysis. Biotinylated VEGF-A was then captured on the surface until a resonance unit (RU) signal of about ˜400. For immobilization of VEGF-A on CM5 sensor, the surface was first activated with a mixture of N-ethyl-N′-(3-dimethylaminopropyl)carbodiimide hydrochloride and N-hydroxysuccinimide (EDC/NHS) according to the supplier instructions. VEGF-A was then diluted into coupling buffer (0.1 M Acetate Buffer, pH 5.0) and injected until the signal reached about ˜400 RU followed by a wash with 1 M ethanolamine pH 8.0 to quench remaining activated sites.

[3] = molecular target: T2, hVEGF-A (8-109) (human, UniProt P15692 214-315); experiment: spot phage ELISA
T2 sequence (looked up): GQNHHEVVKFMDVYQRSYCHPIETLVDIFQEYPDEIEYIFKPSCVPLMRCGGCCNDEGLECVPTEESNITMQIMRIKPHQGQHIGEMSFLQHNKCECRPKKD
Method: (§1) After four rounds of binding selection, individual phage clones were picked and inoculated into 450 μl 2YT media containing 50 µg/ml Carbenecillin and M13-KO7 helper phage in 96-well blocks, which were grown at 37° C. overnight. […] The plates were washed and bound phage was detected with anti-M13-HRP followed by TMB substrate. In these assays, phage binding to BSA alone was tested in parallel to assess background binding. […] Positive clones were subjected to DNA sequence analysis.

[4] = molecular target: T1, hVEGF-A; experiment: cell-based or functional assay
[5] = molecular target: T2, hVEGF-A (8-109); experiment: phage competition ELISA (clone on phage; the concentration varied on the axis is that of hVEGF (8-109))
[6] = molecular target: T1, hVEGF-A; experiment: cell-based or functional assay; remark: listed apart in the source
[7] = molecular target: T1, hVEGF-A; experiment: cell-based or functional assay; remark: listed apart in the source
[8] = molecular target: T2, hVEGF-A (8-109); experiment: spot phage ELISA; remark: listed apart in the source
Method: as §1

[9] = molecular target: T2, hVEGF-A (8-109); experiment: spot phage ELISA; remark: listed apart in the source
Method: as §1

[10] = molecular target: T1, hVEGF-A; experiment: phage competition ELISA, soluble CKP
[11] = molecular target: T1, hVEGF-A; experiment: phage competition ELISA, soluble CKP; remark: listed apart in the source
[12] = molecular target: T3, LRP6 (human, UniProt O75581 20-1613); experiment: cell-based or functional assay
[13] = molecular target: T3, LRP6; experiment: cell-based or functional assay; remark: listed apart in the source
[14] = molecular target: T4, LRP6 E1E2 protein (human, UniProt O75581 20-630, limits assumed); experiment: spot phage ELISA
T4 construct: domain: E1E2
T4 sequence (looked up): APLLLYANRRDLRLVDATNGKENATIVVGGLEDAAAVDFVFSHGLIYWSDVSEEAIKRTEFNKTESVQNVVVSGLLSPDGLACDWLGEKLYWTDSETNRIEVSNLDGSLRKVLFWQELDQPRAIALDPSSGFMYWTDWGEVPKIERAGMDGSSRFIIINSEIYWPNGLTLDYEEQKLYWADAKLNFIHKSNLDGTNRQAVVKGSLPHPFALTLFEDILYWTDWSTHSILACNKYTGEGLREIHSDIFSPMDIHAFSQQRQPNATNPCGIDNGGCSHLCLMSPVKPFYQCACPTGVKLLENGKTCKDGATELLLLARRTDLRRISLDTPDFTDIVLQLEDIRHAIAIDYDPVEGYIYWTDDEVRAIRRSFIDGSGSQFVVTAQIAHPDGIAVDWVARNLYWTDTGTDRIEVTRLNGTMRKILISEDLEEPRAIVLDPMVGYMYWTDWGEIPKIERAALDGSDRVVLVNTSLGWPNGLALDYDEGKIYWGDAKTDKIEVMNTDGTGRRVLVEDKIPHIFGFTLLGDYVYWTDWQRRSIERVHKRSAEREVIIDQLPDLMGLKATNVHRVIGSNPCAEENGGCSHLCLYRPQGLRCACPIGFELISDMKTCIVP

[15] = molecular target: T1, hVEGF-A; experiment: cell-based or functional assay; remark: listed apart in the source
[16] = molecular target: T1, hVEGF-A
[17] = molecular target: T2, hVEGF-A (8-109); experiment: phage competition ELISA

B1: VEGF_CKP9.54.1 (designed binder)
chain: GCNIMLPFWGCGQSFECLAGCVCQYYQSCG
IC50 [1]: 0.2 nM
Kd [2]: 2.2 nM
ELISA [3]: 2.4
S/N vs BSA [3]: 29.9
Cellular IC50 [4]: 1.47 nM
IC50 (read off the curve) [5]: ~0.3 nM

B2: VEGF_CKP9.54.90.F8Y (designed binder)
chain: B1 chain with F8Y, Q13R, S14D
Cellular IC50 [6]: 1.58 nM
FOLD [..] [..] TO VARIANT 9.54.90 [6]: 0.85 fold
Kd [2]: 0.4 nM

B3: VEGF_CKP9.54.1.F8Y (designed binder)
chain: B1 chain with F8Y
Kd [2]: 0.78 nM

B4: VEGF_CKP9 (designed binder)
chain: GCQLMQPFWGCKQDSDCLAGCVCHWYQSCG
notes: also called E9
IC50 [1]: 569 nM
Cellular IC50 [7]: 11700 nM
ELISA [8]: 0.4
S/N vs BSA [8]: 7.4
ELISA [9]: 0.4
S/N vs BSA [9]: 7.4
Kd [2]: 5000 nM
ELISA [3]: 3.3
S/N vs BSA [3]: 36
IC50 [10]: 600 nM
Cellular IC50 [4]: 11700 nM
IC50 [11]: 1360 nM

B5: VEGF_CKP9.2 (designed binder)
chain: B4 chain with Q3D, L4V, M5L
Cellular IC50 [7]: 270 nM
ELISA [9]: 2.4
S/N vs BSA [9]: 31.1
IC50 [11]: 168 nM

B6: LRP6_CKP19 (designed binder)
chain: GCSNRVKVRACKQDSDCLAGCVCGPNGFCG
Best Fit IC50 (nM) for Wnt3a (25 ng/well), luciferase reporter, fraction F1 [12]: 59300 nM
Best Fit IC50 (nM) for Wnt3a (25 ng/well), luciferase reporter, fraction F2 [12]: 69800 nM
Best Fit IC50 (nM) for Wnt1 (5 ng/well), luciferase reporter, fraction F1 [13]: 23100 nM
Best Fit IC50 (nM) for Wnt1 (5 ng/well), luciferase reporter, fraction F2 [13]: 49300 nM
ELISA [14]: 3.27
S/N vs BSA [14]: 42

B7: VEGF_CKP9.54.90.62 (designed binder)
chain: GCNIMLPFWGCGRDFECFYECICQYYQSCG
Cellular IC50 [15]: 0.92 nM
FOLD [..] [..] TO VARIANT 9.54.90 [15]: 1.47 fold
IC50 (read off the curve) [16]: 20 nM

B8: LRP6_CKP6 (designed binder)
chain: GCRNSIKRCKQNSDCLAGCVCSVGHGCG
Best Fit IC50 (nM) for Wnt3a (25 ng/well), luciferase reporter, fraction F1 [12]: 350000 nM
Best Fit IC50 (nM) for Wnt3a (25 ng/well), luciferase reporter, fraction F2 [12]: 276000 nM
Best Fit IC50 (nM) for Wnt1 (5 ng/well), luciferase reporter, fraction F1 [13]: 22900 nM
Best Fit IC50 (nM) for Wnt1 (5 ng/well), luciferase reporter, fraction F2 [13]: 23800 nM
Best Fit IC50 (nM) for Wnt1 (5 ng/well), luciferase reporter, fraction F3 [13]: 4620 nM
ELISA [14]: 3.1
S/N vs BSA [14]: 37.4

B9: VEGF_CKP9.54.90.67 (designed binder)
chain: B7 chain with F18M, Y19E, E20Q
Cellular IC50 [15]: 1.1 nM
FOLD [..] [..] TO VARIANT 9.54.90 [15]: 1.23 fold
IC50 (read off the curve) [16]: 12 to 20 nM

B10: VEGF_CKP9.54.90.13 (designed binder)
chain: B7 chain with F18M, Y19N, E20Q
Cellular IC50 [15]: 0.96 nM
FOLD [..] [..] TO VARIANT 9.54.90 [15]: 1.41 fold
IC50 (read off the curve) [16]: 20 nM

B11: VEGF_CKP9.54.90-Alkyn (designed binder)
chain: B1 chain with Q13R, S14D
modifications: cysteine pairing not given here; also: -Alkyn: alkyne modification, position not given here
Kd [2]: 0.49 nM

B12: VEGF_CKP9.54.90.12 (designed binder)
chain: B7 chain with F18M, Y19S, E20D
Cellular IC50 [15]: 1.2 nM
FOLD [..] [..] TO VARIANT 9.54.90 [15]: 1.12 fold
IC50 (read off the curve) [16]: 30 nM

B13: 9.54-28 (designed binder)
chain: GCNIMLPFWGCKQDFDCLAGCICQYYQSCGFH
fold improvement in binding affinity compared to 9.54 [17]: ~10 fold
IC50 (read off the curve) [5]: ~0.1 nM

B14: 9.54.1-2 (designed binder)
chain: GCNIMLPFWGCGQSFECLAGCICQYYQSCGIA
fold improvement in binding affinity compared to 9.54.1 [17]: ~10 fold

B15: 9.54.1-90 (designed binder)
chain: B14 chain with I31V, A32H
fold improvement in binding affinity compared to 9.54.1 [17]: ~10 fold
IC50 (read off the curve) [5]: ~0.08 nM

B16: 9.54.1-42 (designed binder)
chain: B14 chain with I31L, A32S
fold improvement in binding affinity compared to 9.54.1 [17]: ~10 fold
IC50 (read off the curve) [5]: ~0.08 nM

B17: 9.54.1-36 (designed binder)
chain: B14 chain with I31T, A32R
fold improvement in binding affinity compared to 9.54.1 [17]: ~10 fold
IC50 (read off the curve) [5]: ~0.06 nM

B18: 9.54.1-63 (designed binder)
chain: B14 chain with I31G, A32S
fold improvement in binding affinity compared to 9.54.1 [17]: ~10 fold
